Measurements published in patent publication US20150056205A1, “STEROID SPARING AGENTS AND METHODS OF USING SAME” (BIOGEN IDEC MA INC., priority 2004, published 2015).

Experiments:
[1] = test system: pregnant cynomolgus monkeys; assay: follow-up reproductive toxicity study; assay type: in vivo, cynomolgus monkey; conditions: two in the control
Method: In mice, there is evidence that α4 integrin and VCAM-1 play a role in placental and cardiac development, and they may also play a wider role in fetal development. There is, therefore, a risk of an abortifacient effect or teratogenicity if α4 integrin is blocked by natalizumab. A preliminary reproductive toxicity study exposed groups of five pregnant cynomolgus monkeys to repeated intravenous doses of 0.06, 0.3, or 30 mg/kg natalizumab. One of five pregnant females in the 30 mg/kg group aborted at Day 31 of gestation after receiving five doses of natalizumab. Because the overall rate of abortion fell within the rate of spontaneous abortion in this species, the event was not believed to be related to natalizumab. An ongoing follow-up reproductive toxicity study has exposed groups of 10 to 15 pregnant cynomolgus monkeys to repeated intravenous doses of 3, 10, or 30 mg/kg. Embryo deaths have occurred at similar rates in all treatment groups: two in the control, one in the 3 mg/kg, two in the 10 mg/kg and two in the 30 mg/kg groups respectively. As a precaution, women of childbearing potential must utilize effective contraception throughout the duration of the study and for at least 3 months after the last infusion of study drug, and must have a negative pregnancy test at the time of each natalizumab dosing.

primates = conditions: in vivo
From the text: The inflammation was characterized by increased numbers of lymphocytes and plasma cells within the lamina propia with occasional crypt abscesses.

[2] = test system: adult subjects with Crohn's disease (CD); assay: maintenance of clinical response and remission in Crohn's Disease, six month regimen (Example 10); assay type: in vivo, human
Method: This experiment was a double-blind, placebo-controlled study of the efficacy, safety, and tolerability of natalizumab in maintaining clinical response and remission in Crohn's Disease.
Natalizumab, a humanized monoclonal IgG4 antibody to α4 integrin, was evaluated in a randomized, controlled study to determine the ability of a six month regimen to maintain clinical response/remission achieved in natalizumab-treated subjects in the […] induction of response/remission study.
Loss of response was defined as a CDAI≧220 and ≧70-point increase from baseline CDAI in the second study or use of rescue intervention. Maintenance of remission was also assessed.

guinea pig EAE = assay: guinea pig Experimental Allergic Encephalitis (EAE) model; assay type: in vivo
Method: The initial dose of natalizumab selected for clinical evaluation was based on non-clinical studies in the guinea pig Experimental Allergic Encephalitis (EAE) model. […] A single dose of 3 mg/kg appeared to provide serum concentrations of natalizumab associated with α4 integrin receptor blockade for up to approximately 3 weeks, and 6 mg/kg for about 6 weeks.

[3] = test system: subjects diagnosed with chronic active Crohn's disease; assay: placebo-controlled single infusion study in chronic active Crohn's disease; assay type: in vivo
Method: Earlier studies in Crohn's disease and ulcerative colitis are summarized below. One study was a randomized, double-blind, placebo-controlled, safety, tolerability, and efficacy study of a single infusion of intravenous 3 mg/kg natalizumab in male and female subjects diagnosed with chronic active Crohn's disease. Thirty subjects were enrolled; 18 were treated with natalizumab (3 mg/kg) and 12 with placebo.

[4] = test system: subjects with moderately to severely active Crohn's disease; assay: placebo-controlled one or two infusion study in moderately to severely active Crohn's disease; assay type: in vivo; conditions: for subjects withdrawn due to adverse events: placebo 2; for subjects reporting a serious adverse event: placebo 9
Method: Another earlier study was a double-blind, placebo-controlled, parallel group, multicenter, efficacy, safety, and tolerability study of either one or two intravenous infusions of placebo, 3 or 6 mg/kg natalizumab in subjects with moderately to severely active Crohn's disease. […] Sixty-eight subjects were randomized to a single infusion of 3 mg/kg, 66 to two infusions of 3 mg/kg at a 4-week interval, 51 to two infusions of 6 mg/kg at a 4-week interval and 63 to receive placebo.

[5] = test system: mice, guinea pigs, and monkeys; conditions: in vivo
Method: Single- and multiple-dose toxicity studies have been performed in mice, guinea pigs, and monkeys. All toxicology studies were carried out using natalizumab and included an acute study in guinea pigs, subacute studies in mouse and cynomolgus monkeys, and mutagenicity and tissue cross-reactivity studies.

[6] = Week 6, two infusions of 3 mg/kg

With natalizumab the embryo deaths ([1]; 3 mg/kg repeated intravenous doses) was “one”, the embryo deaths ([1]; 10 mg/kg repeated intravenous doses) was “two” and the embryo deaths ([1]; 30 mg/kg repeated intravenous doses) was “two”. For the same substance, the “treated animals with minimal to mild lymphoplasmacytic inflammation of the mucosa of the cecum, colon, and/or rectum” value (primates) was “about half”, the “subjects taking steroids in the first study who were withdrawn from steroids” value ([2]; 300 mg monthly, placebo 25%) was 55% and the “subjects who maintained clinical remission” value ([2]; at 6 months, 300 mg monthly, placebo 26%) was 44%. For the same substance, the “subjects continuing to meet the criteria for clinical response” value ([2]; at 6 months, ITT population, 300 mg monthly, placebo 29%) was 61%, the tolerability ([2]; monthly administration for 6 months) was “well tolerated” and the “rates of serious and non-serious adverse events between treatment groups” value ([2]; versus placebo) was “No notable difference”. The “signs and symptoms of EAE” value (guinea pig EAE; dose of 3 mg/kg) was “significant delay in onset and a reversal of the signs and symptoms of EAE”, the “signs and symptoms of EAE” value (guinea pig EAE; lower doses than 3 mg/kg) was “not effective” and the “mean CDAI scores compared to mean baseline” value ([3]; 2 and 4 weeks post-treatment, single 3 mg/kg) was “significantly decreased”. The “subjects requiring rescue therapy” value ([3]; Week 2 post-treatment, single 3 mg/kg, placebo 33%) was 11%, the “subjects withdrawn because of an adverse event” value ([3]; single 3 mg/kg) was “No subjects” and the “subjects reporting one serious adverse event” value ([3]; single 3 mg/kg, 18 treated) was “Six”. For the same substance, the safety and tolerability ([3]; single intravenous dose of 3 mg/kg, subjects with CD) was “safe and well tolerated”, the “subjects in clinical remission (CDAI<150)” value ([3]; two weeks after single 3 mg/kg intravenous infusion, placebo 8%) was 39% and the “remission rate (CDAI<150)” value [4, 6] was 46%. The “response rate (≧70 point drop in CDAI)” value [4, 6] was 73%, the “response rate (≧100 drop in CDAI)” value [4, 6] was 56% and the “remission rates (CDAI<150)” value ([4]; Weeks 8 and 12, two infusions of 3 mg/kg and two infusions of 6 mg/kg) was 41-43%. The C-reactive protein ([4]; in vivo) was “decreases”, the “quality of life, Inflammatory Bowel Disease Questionnaire” value ([4]; in vivo) was “Statistically significant improvements” and the “subjects withdrawn due to adverse events” value ([4]; single 3.0 mg/kg infusion) was 1. The “subjects reporting a serious adverse event” value ([4]; single 3.0 mg/kg infusion) was 8, the safety and tolerability ([4]; subjects with active CD) was “safe and well tolerated” and the “subjects withdrawn due to adverse events” value ([4]; two 3 mg/kg infusions) was 2. The “subjects reporting a serious adverse event” value ([4]; two 3 mg/kg infusions) was 8, the “subjects withdrawn due to adverse events” value ([4]; two 6 mg/kg infusions) was 3 and the “subjects reporting a serious adverse event” value ([4]; two 6 mg/kg infusions) was 7. The “clinical or postmortem evidence of toxicity” value [5] was “did not demonstrate clinical or postmortem evidence of significant toxicity”.
